# Data: patent US20230220005A1, “S100A8-INHIBITING PEPTIDE AND DISEASE THERAPEUTIC AGENT CONTAINING SAME” (TOKYO WOMEN'S MEDICAL UNIVERSITY, priority 2020, published 2023)
# Ends that are not written are not given here.
# What was measured:
# [1] = target: T1, binding of S100A8 to TLR4/MD-2 complex (Homo sapiens, UniProt O00206+Q9Y6Y9); test: Competition ELISA: binding of S100A8 to TLR4/MD-2 complex; conditions: for competitive inhibitory activity on binding of S100A8 to TLR4/MD-2 complex, candidate peptides: chain length screening candidates, FIG. 7(B); for competitive activity in competition assay, divalent and tetravalent peptides: FIG. 8
# Procedure: Pre-purified S100A8 protein was immobilized on an ELISA plate. Non-specific binding was blocked with blocking buffer in the same manner as in Example 1. Peptides #1 to #6 were added simultaneously with TLR4/MD-2, and the mixture was reacted. Each well was washed with PBS-Tween 20, then incubated with an anti-TLR4 antibody (Abcam) and an anti-rabbit IgG-HRP labeled antibody (GE Healthcare) subsequently, and finally a reaction with TMB as an HRP substrate was terminated with an equivalent of 1 N sulfuric acid. Bound TLR4/MD-2 was quantified by measuring the absorbance at OD 450 nm.
# (§1) In order to identify an essential region in the Peptide3A5 sequence, a series of partial sequence peptides based on the amino acid sequence of Peptide3A5, which were obtained by deleting the amino acid from the amino terminal side or the carboxyl terminal side, were spot-synthesized as divalent peptides on a cellulose membrane sheet using the method of Patent Literature 1. Several kinds of affinity peptides with high affinity to TLR4/MD-2 were obtained by reacting the sheet with TLR4/MD-2 (FIG. 7A). Candidate peptides were subjected to a competition assay similar to Example 1 (FIG. 2).
# A competition assay was performed using divalent ILVIK (SEQ ID NO. 2), divalent Peptide3A5 (SEQ ID NO. 1), and tetravalent ILVIK. The tetravalent ILVIK was also synthesized using the method of Patent Literature 1.
# [2] = target: T2, TLR4/MD-2 (Homo sapiens, UniProt O00206+Q9Y6Y9); test: Chain length screening: divalent peptides spot-synthesized on cellulose membrane sheet reacted with TLR4/MD-2; assay type: binding; conditions: FIG. 7(A)
# Text: as §1
# [3] = system: SW480 cells subcutaneous tumor; test: Antitumor activity in SW480 xenograft model; assay type: in vivo; conditions: mouse, two weeks
# Procedure: First, two weeks after transplantation of SW480 cells subcutaneously in a mouse, the size of the subcutaneous tumor was measured, and confirmed to be equivalent tumor size. The peptide was administered to the abdominal cavity at the indicated concentrations twice a week, and the size of the tumor was measured over time. After two weeks, the size of the subcutaneous tumor was measured, and the subcutaneous tumor was collected.
# The divalent ILVIK was identified as an S100A8-inhibiting peptide candidate by chain length screening, and influence of the divalent ILVIK on mouse subcutaneous tumors was examined in the same manner as in Example 5 (FIG. 6). First, two weeks after transplantation of SW480 cells subcutaneously in a mouse, the size of the subcutaneous tumor is measured, and confirmed to be equivalent tumor size. The peptide was administered to the abdominal cavity at the indicated concentrations twice a week, and the size of the tumor was measured over time. After two weeks, the size of the subcutaneous tumor was measured, and the subcutaneous tumor was collected.
# First, two weeks after transplantation of SW480 cells subcutaneously in a mouse, the size of the subcutaneous tumor was measured, and confirmed to be equivalent tumor size. The tetravalent ILVIK was administered to the abdominal cavity at the indicated concentrations (1 mg/kg, 5 mg/kg, 10 mg/kg) twice a week, and the size of the tumor was measured over time. After two weeks, the size of the subcutaneous tumor was measured, and the subcutaneous tumor was collected.
# [4] = target: T2, TLR4/MD-2; test: ELISA: binding of TLR4/MD-2 to peptides immobilized on plate; conditions: for binding to TLR4/MD-2 of alanine-substituted peptides: alanine scanning, amino terminus acetylated, carboxyl terminus amidated, immobilized on ELISA plate, FIG. 3
# Procedure: Furthermore, for the purpose of narrowing the binding region with the TLR4/MD-2 complex, a peptide of 10 amino acids in the carboxyl terminal amino acid sequence was synthesized. At this time, the sequence can be comprehensively analyzed by overlapping by five amino acids. The synthesized peptides were immobilized on an ELISA plate (Thermo Fisher Scientific Inc.; Maxisorp), and then non-specific binding was blocked with a blocking buffer. Each well was washed with PBS-Tween 20 and then incubated with a high-purity human TLR4/MD-2 recombinant protein, then each well was incubated with an anti-TLR4 antibody (Abcam) and an anti-rabbit IgG-HRP labeled antibody (GE Healthcare), and finally a reaction with TMB as an HRP substrate was terminated with an equivalent of 1 N sulfuric acid. The amount of bound TLR4/MD-2 was quantified by measuring the absorbance at OD 450 nm.
# In addition, acetylation was introduced at the amino terminus of these peptides, and amidation modification was introduced at the carboxyl terminus. These 10 peptides were immobilized on an ELISA plate (Thermo Fisher Scientific Inc.; Maxisorp) to verify binding with TLR4/MD-2.
# [5] = system: IL-8 mRNA expression in human colorectal cancer SW480 cells; test: IL-8 mRNA induction by S100A8 in SW480 cells; assay type: cell-based; conditions: SW480 cells pretreated with peptide, stimulated with S100A8 recombinant protein, after 5 hours; FIG. 4
# Procedure: Human colorectal cancer SW480 cells express TLR4, and induce IL-8 by S100A8 stimulation. In order to verify inhibitory activity of peptides isolated so far, after pretreating divalent Peptide #3 or divalent Peptide3A5, the cells were stimulated with S100A8 recombinant protein, and the mRNA expression of IL-8 after 5 hours was analyzed. The divalent Peptide #3 and the divalent Peptide3A5 were prepared according to the method of Patent Literature 1 described above.
# [6] = target: T1, binding of S100A8 to TLR4/MD-2 complex; test: Competition by immunoprecipitation with anti-TLR4 antibody and Western blotting; conditions: 10 times the molar amount of peptide; S100A8 detected by Western blotting; FIG. 2B
# Procedure: The TLR4/MD-2 complex and S100A8 were mixed in a tube. At this time, 10 times the molar amount of each of Peptides #1 to #6 was added, and immunoprecipitation was performed with an anti-TLR4 antibody. The immunoprecipitate was washed several times with a washing buffer, and the final pellet was electrophoresed by SDS-PAGE. Then, S100A8 and TLR4 were detected by Western blotting using an anti-S100A8 antibody and an anti-TLR4 antibody.
# [7] = peptide to the abdominal cavity twice a week, FIG. 6, FIG. 9
# T1 sequence (O00206 24-631 limits assumed): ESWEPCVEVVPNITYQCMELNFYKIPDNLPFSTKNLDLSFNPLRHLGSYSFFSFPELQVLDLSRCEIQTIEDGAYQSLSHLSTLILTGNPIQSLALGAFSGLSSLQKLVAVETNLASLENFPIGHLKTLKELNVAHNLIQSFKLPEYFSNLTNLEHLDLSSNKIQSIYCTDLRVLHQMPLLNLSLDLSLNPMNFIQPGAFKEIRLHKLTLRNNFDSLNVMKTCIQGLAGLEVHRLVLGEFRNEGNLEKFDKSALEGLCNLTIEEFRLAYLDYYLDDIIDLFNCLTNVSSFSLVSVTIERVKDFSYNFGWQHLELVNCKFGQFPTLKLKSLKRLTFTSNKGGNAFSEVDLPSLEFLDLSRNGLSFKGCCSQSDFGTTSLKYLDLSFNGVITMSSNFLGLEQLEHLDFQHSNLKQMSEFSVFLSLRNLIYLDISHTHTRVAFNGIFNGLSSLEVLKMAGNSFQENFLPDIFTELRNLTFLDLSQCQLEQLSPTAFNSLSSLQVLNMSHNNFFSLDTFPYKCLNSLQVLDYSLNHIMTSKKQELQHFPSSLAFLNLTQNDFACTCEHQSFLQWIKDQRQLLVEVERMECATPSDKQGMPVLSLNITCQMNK
# T1 sequence (Q9Y6Y9 19-160): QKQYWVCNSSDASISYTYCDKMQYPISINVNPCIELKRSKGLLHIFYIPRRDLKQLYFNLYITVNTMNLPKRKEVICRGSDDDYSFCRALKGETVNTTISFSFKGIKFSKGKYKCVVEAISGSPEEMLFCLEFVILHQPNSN
# T2 sequence (O00206 24-631 limits assumed): as the sequence (O00206 24-631 limits assumed) above
# T2 sequence (Q9Y6Y9 19-160): as the sequence (Q9Y6Y9 19-160) above
substance,measurement,setting,value
Phe-Gln-Glu-Phe-Ala-Ile-Leu-Val-Ile (FQEFAILVI) [SEQ ID NO: 3],"competitive inhibitory activity on binding of S100A8 to TLR4/MD-2 complex, candidate peptides",[1],competitive inhibitory activity
same,affinity for TLR4/MD-2 of partial sequence peptides,[2],high affinity
"tetravalent ILVIK: tetravalent peptide containing four ILVIK sequences, synthesized using the method of Patent Literature 1","competitive activity in competition assay, divalent and tetravalent peptides",[1],almost the same competitive activity as the divalent ILVIK
same,development of subcutaneous tumor (tumor size),"[3]; 1 mg/kg, 5 mg/kg, 10 mg/kg to the abdominal cavity twice a week, FIG. 10",suppressed the development of mouse subcutaneous tumors in a concentration-dependent manner
divalent ILVIK: divalent peptide containing two ILVIK (SEQ ID NO. 2) sequences (also: divalent linkage of two copies (linker not given here)),"competitive activity in competition assay, divalent and tetravalent peptides",[1],almost similar competitive activity as the divalent Peptide3A5
same,development of subcutaneous tumor (tumor size),[3]; [7],suppressed the development of mouse subcutaneous tumor in a concentration-dependent manner
"Peptide3A7: Peptide #3 (SEQ ID NO: 13) with position 7 from the N-terminal side substituted with alanine; acetylated amino terminus, amidated carboxyl terminus (Ac-FQEFLIAVIK-NH2)",binding to TLR4/MD-2 of alanine-substituted peptides,[4],reduced
"Peptide3A10: Peptide #3 (SEQ ID NO: 13) with position 10 from the N-terminal side substituted with alanine; acetylated amino terminus, amidated carboxyl terminus (Ac-FQEFLILVIA-NH2)",binding to TLR4/MD-2 of alanine-substituted peptides,[4],reduced
Gln-Glu-Phe-Ala-Ile-Leu-Val (QEFAILV) [SEQ ID NO: 4],"competitive inhibitory activity on binding of S100A8 to TLR4/MD-2 complex, candidate peptides",[1],competitive inhibitory activity
same,affinity for TLR4/MD-2 of partial sequence peptides,[2],high affinity
"divalent Peptide #3: divalent peptide containing two Peptide #3 sequences, prepared according to the method of Patent Literature 1 (FQEFLILVIK)",expression of mRNA of IL-8 induced by S100A8,[5],remarkably inhibited
FQEFAILVIK [Peptide3A5],binding to TLR4/MD-2 of alanine-substituted peptides,[4],higher affinity for TLR4/MD-2 than Peptide #3
"Peptide3A8: Peptide #3 (SEQ ID NO: 13) with position 8 from the N-terminal side substituted with alanine; acetylated amino terminus, amidated carboxyl terminus (Ac-FQEFLILAIK-NH2)",binding to TLR4/MD-2 of alanine-substituted peptides,[4],reduced
"divalent Peptide3A5: divalent peptide containing two Peptide3A5 (SEQ ID NO. 1) sequences, prepared according to the method of Patent Literature 1 (chain 1 FQEFAILVIK; chain 2 FQEFAILVIK; also: divalent linkage of two copies (linker not given here))","competitive inhibitory activity, monovalent versus divalent","[1]; various concentrations added simultaneously with TLR4/MD-2 complex, FIG. 5",showed the competitive inhibitory activity at a lower concentration as compared with the monovalent type
same,expression of mRNA of IL-8 induced by S100A8,[5],remarkably inhibited
same,development of subcutaneous tumor (tumor size),[3]; [7],suppressed the development of subcutaneous tumor in mice in a concentration-dependent manner
Ile-Leu-Val-Ile-Lys (ILVIK) [SEQ ID NO: 2],"competitive inhibitory activity on binding of S100A8 to TLR4/MD-2 complex, candidate peptides",[1],competitive inhibitory activity
same,affinity for TLR4/MD-2 of partial sequence peptides,[2],high affinity
"Peptide3A6: Peptide #3 (SEQ ID NO: 13) with position 6 from the N-terminal side substituted with alanine; acetylated amino terminus, amidated carboxyl terminus (Ac-FQEFLALVIK-NH2)",binding to TLR4/MD-2 of alanine-substituted peptides,[4],reduced
Phe-Gln-Glu-Phe-Leu-Ile-Leu-Val-Ile-Lys (FQEFLILVIK) [Peptide #3],"affinity for TLR4/MD-2 (amount of bound TLR4/MD-2, absorbance at OD 450 nm)","[4]; overlapping 10 amino acid peptides immobilized on ELISA plate, FIG. 1",high affinity for TLR4/MD-2
same,competitive inhibitory activity on the binding between S100A8 and the TLR4/MD-2 complex (ELISA),"[1]; S100A8 immobilized, peptide added simultaneously with TLR4/MD-2, FIG. 2A",found to have competitive inhibitory activity
same,competitive inhibitory activity on the binding of S100A8 to the TLR4/MD-2 complex (immunoprecipitation),[6],had competitive inhibitory activity
